Data on ten molecules can be found in patent publication US20260098080A1, “A MODIFIED PROTEIN SCAFFOLD AND USE THEREOF” (EVOLVERITAS BIOTECHNOLÓGIAI KORLÁTOLT FELELOSSÉGU TÁRSASÁG, priority 2022, published 2026).

Where two headings read alike, the source gives them in different places. Bridges are numbered along the chain shown (N, C = ends). Where no end group is shown, it is not given here.

The target in one assay is human MASP-2 (Homo sapiens, UniProt O00187). As to conditions: as disclosed in WO2018127719, read-out: inhibitory binding constant (KI) on human MASP-2, cited from earlier work.
A further assay has as its target rat MASP-2 (Rattus norvegicus, UniProt Q9JJS8). The note with it: as disclosed in WO2018127719; cited from earlier work.
In assay [1] the target is T1, human MASP-2 catalytic fragment (Homo sapiens, UniProt O00187).
T1 construct: catalytic enzyme fragments containing the three C-terminal domains: CCP1-CCP2-SP; made in house
The assay can be described thus: Surface plasmon resonance kinetics and affinity on immobilized human MASP-2 catalytic fragment. It counts as binding.

A further assay concerns the target T2, human MASP-2cf (Homo sapiens, UniProt O00187).
T2 construct: catalytic enzyme fragments containing the three C-terminal domains: CCP1-CCP2-SP; made in house
The assay can be described thus: Equilibrium inhibition constant (KI) on human MASP-2 catalytic fragment, Z-L-Lys-SBzl substrate. It counts as biochemical.

For assay [2], the target named is fXIa (Homo sapiens, UniProt P03951). The assay can be described thus: IC50 on human blood coagulation factor fXIa. It counts as biochemical. As to conditions: 3.3 nM enzyme. The method, then:
The measurements were done using non-binding microtiter plates (Greiner; #655901) in 100 μL final volume. After some pilot experiments to find the proper inhibitor concentration range, the maximal inhibitor concentration was set to 20 μM for MASP-1, 10 μM for fXIa and 40 μM for fIXa and fXIIa inhibition, and twofold serial dilutions were prepared from the proteins of the present invention. To these solutions, […] to reach a previously optimized final concentration, 10 nM for MASP-1, 50 nM for fIXa, 3.3 nM for fXIa and 27.5 nM for fXIIa.
The samples were incubated for 10 minutes at room temperature. After adding the substrate (150 μM Z-Lys-S-Benzyl and 300 μM 4,4′-dithiodipyridine (DTDP) co-substrate for MASP-1; 150 μM Z-Gly-Arg-S-Benzyl and 300 μM DTDP co-substrate for fIXa; 300 μM Cbz-GPR-pNA for fXIa and 100 μM H-D-PFR-pNA for fXIIa). The reaction buffer was 50 mM Tris-HCl, 150 mM NaCl, 5 mM CaCl2), 0.1% PEG-8000 pH 7.4 for MASP-1; 20 mM HEPES, 145 mM NaCl, 0.05% Triton-X100 pH 7.4 for fIXa and fXIa; which was complemented with 5 mM CaCl2) for fXIIa.
The efficacies of the proteins of the present invention were determined in the form of (IC50) values corresponding to inhibitor concentrations that provide 50% inhibition.

Assay [3] addresses T3, rat MASP-2cf CCP1-CCP2-SP (rat, UniProt Q9JJS8 298-685).
T3 construct: range 298-685; Mw 42309 Da; also called rat MASP-2 catalytic fragment
The assay can be described thus: SPR, target immobilised.

The target of assay [4] is T4, human MASP-2cf CCP1-CCP2-SP (human, UniProt O00187 298-686, limits assumed).
T4 construct: domain: CCP1-CCP2-SP; also called human MASP-2 catalytic fragment
Put plainly: SPR, target immobilised. For orientation: SPR reads the build-up and loss of mass on a sensor chip optically.

Assay [5] addresses rat MASP-2 (in rat serum) (rat, UniProt Q9JJS8 20-685). The assay can be described thus: cell-based or functional assay.
Assay [6] has as its target T5, human MASP-2 (in normal human serum) (human, UniProt O00187 16-686). The assay can be described thus: cell-based or functional assay.
For assay [7], the target named is T5, human MASP-2 (in normal human serum). Put plainly: cell-based or functional assay. This is another data set of the same source.
The target in a further assay is fIXa (human, UniProt P00740 47-461). The assay can be described thus: cell-based or functional assay.
A further assay has as its target T6, fXIIa (human, UniProt P00748 20-615, limits assumed).
T6 sequence (looked up): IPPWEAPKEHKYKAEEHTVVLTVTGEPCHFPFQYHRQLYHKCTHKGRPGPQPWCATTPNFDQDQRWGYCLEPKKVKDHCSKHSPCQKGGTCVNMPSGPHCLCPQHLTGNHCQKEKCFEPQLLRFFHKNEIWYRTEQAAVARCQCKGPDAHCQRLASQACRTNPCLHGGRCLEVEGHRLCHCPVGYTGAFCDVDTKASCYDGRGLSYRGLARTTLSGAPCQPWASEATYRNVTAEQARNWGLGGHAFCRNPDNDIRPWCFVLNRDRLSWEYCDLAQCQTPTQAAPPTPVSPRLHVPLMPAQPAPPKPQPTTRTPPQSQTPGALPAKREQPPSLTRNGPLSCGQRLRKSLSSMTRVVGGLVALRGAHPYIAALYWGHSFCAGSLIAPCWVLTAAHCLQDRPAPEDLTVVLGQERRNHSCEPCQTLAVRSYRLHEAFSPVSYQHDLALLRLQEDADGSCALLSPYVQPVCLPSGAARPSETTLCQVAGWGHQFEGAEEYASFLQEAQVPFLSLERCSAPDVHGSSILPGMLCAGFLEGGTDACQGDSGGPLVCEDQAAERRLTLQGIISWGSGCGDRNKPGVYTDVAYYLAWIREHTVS
Put plainly: cell-based or functional assay.

For the next assay, the target named is T7, MASP-1 (UniProt P48740 298-699, limits assumed).
T7 sequence (looked up): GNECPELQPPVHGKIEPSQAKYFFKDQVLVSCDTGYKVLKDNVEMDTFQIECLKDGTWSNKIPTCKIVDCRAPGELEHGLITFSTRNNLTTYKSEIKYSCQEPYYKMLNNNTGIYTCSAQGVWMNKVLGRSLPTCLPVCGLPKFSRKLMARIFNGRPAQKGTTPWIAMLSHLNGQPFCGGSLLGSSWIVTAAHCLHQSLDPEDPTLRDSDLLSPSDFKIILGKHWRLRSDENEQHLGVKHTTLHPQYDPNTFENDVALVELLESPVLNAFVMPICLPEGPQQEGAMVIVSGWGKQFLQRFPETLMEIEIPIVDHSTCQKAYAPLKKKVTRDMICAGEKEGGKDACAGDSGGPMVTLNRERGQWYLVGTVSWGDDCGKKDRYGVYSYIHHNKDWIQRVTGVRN
Put plainly: cell-based or functional assay.

Assay [8] deals with fXIa (human, UniProt P03951 19-625). Put plainly: cell-based or functional assay.
For assay [9], the target named is T3, rat MASP-2cf CCP1-CCP2-SP. The assay can be described thus: enzyme inhibition, tight-binding fit.
Assay [10] concerns the target T4, human MASP-2cf CCP1-CCP2-SP. The assay can be described thus: enzyme inhibition, tight-binding fit.

As a reminder, the Ki is the equilibrium dissociation constant of an inhibitor or competing ligand from its target. For orientation: Kd means a measure of binding affinity in units of concentration. The term IC50 denotes the concentration at which inhibition is half-maximal. Higher therefore signals a need for much substance. By koff is commonly meant the rate constant with which the complex falls apart. What is called kon is the second-order rate constant of association. Low values mean slow association, high ones fast association.

T5 sequence (O00187 16-686 limits assumed): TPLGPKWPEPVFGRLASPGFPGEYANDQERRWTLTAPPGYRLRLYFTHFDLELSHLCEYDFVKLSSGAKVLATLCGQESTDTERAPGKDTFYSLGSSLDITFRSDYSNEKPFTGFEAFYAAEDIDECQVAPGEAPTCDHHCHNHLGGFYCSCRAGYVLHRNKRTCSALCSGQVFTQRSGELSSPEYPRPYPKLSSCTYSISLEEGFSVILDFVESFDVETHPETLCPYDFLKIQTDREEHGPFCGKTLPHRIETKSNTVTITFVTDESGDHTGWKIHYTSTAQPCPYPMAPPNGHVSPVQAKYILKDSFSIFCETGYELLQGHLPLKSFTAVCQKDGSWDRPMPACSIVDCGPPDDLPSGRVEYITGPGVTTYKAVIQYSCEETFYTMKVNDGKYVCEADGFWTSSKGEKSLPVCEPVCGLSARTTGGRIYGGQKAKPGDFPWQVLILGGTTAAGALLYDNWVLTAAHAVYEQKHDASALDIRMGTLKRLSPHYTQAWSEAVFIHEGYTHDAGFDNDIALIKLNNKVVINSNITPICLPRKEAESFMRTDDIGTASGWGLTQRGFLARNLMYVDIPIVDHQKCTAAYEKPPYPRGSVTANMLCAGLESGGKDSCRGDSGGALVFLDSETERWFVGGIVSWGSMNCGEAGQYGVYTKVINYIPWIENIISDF
Sequence of human MASP-2 (O00187 16-686): as the sequence (O00187 16-686 limits assumed) above
Sequence of rat MASP-2 (in rat serum) (Q9JJS8 20-685 limits assumed): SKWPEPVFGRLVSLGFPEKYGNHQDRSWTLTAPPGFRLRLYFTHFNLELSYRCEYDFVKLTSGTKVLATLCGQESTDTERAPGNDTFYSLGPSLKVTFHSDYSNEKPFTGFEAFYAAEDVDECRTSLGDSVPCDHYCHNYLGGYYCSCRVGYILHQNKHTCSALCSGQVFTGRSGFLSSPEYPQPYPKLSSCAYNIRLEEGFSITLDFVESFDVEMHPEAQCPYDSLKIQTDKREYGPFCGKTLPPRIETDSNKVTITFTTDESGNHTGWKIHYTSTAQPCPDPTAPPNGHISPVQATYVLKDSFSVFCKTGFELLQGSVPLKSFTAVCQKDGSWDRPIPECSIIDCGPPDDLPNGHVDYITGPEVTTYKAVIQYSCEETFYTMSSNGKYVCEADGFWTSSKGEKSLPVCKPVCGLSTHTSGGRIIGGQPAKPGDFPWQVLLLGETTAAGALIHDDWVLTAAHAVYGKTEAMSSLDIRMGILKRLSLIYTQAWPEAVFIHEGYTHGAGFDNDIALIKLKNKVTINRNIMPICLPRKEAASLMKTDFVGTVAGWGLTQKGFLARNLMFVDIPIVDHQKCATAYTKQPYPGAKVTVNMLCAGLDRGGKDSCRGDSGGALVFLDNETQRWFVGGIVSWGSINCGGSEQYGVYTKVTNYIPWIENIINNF
T3 sequence (Q9JJS8 other isoform, or with tags, fused parts or gaps limits assumed, form in doubt): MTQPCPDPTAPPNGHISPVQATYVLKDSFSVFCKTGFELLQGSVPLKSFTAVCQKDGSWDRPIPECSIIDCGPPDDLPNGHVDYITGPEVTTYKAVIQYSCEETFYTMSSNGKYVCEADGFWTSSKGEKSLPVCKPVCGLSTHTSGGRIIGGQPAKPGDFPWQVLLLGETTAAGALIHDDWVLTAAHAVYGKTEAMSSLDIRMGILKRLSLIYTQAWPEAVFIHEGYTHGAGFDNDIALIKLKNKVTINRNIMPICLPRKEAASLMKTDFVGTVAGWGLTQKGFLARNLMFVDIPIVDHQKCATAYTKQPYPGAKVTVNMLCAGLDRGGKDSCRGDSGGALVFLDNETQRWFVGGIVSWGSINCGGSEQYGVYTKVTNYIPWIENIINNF
T4 sequence (O00187 298-686 limits assumed): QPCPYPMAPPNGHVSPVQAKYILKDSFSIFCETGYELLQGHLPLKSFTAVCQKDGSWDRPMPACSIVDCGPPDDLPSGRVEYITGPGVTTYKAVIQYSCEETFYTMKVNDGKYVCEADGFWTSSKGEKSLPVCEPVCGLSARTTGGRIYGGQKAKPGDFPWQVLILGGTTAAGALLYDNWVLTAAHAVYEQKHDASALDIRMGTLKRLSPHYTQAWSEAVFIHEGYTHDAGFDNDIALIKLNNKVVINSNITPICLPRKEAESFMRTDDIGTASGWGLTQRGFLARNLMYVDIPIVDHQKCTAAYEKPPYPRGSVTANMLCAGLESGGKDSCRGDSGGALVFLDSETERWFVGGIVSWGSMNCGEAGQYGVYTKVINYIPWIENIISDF
Sequence of fXIa (Homo sapiens, UniProt P03951) (P03951 388-625 limits assumed): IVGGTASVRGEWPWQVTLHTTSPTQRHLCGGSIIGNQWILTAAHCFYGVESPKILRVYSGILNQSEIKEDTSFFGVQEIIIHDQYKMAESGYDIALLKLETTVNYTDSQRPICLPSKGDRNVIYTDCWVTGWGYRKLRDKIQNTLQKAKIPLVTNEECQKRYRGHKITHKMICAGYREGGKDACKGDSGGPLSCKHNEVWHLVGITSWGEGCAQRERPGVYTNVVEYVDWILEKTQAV
Sequence of fXIa (Homo sapiens, UniProt P03951) (P03951 19-387 partner limits assumed): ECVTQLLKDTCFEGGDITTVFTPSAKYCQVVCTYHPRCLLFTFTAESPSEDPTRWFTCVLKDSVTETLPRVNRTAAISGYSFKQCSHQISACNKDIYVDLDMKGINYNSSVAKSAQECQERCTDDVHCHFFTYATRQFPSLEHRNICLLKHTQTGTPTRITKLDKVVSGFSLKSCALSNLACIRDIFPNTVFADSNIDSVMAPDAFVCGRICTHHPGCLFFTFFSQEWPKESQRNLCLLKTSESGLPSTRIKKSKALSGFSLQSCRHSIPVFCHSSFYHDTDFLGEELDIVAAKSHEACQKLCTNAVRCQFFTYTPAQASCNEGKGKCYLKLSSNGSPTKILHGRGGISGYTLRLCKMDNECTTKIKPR
Sequence of rat MASP-2 (Q9JJS8 20-685): as the sequence (Q9JJS8 20-685 limits assumed) above
Sequence of fIXa (P00740 47-461 limits assumed): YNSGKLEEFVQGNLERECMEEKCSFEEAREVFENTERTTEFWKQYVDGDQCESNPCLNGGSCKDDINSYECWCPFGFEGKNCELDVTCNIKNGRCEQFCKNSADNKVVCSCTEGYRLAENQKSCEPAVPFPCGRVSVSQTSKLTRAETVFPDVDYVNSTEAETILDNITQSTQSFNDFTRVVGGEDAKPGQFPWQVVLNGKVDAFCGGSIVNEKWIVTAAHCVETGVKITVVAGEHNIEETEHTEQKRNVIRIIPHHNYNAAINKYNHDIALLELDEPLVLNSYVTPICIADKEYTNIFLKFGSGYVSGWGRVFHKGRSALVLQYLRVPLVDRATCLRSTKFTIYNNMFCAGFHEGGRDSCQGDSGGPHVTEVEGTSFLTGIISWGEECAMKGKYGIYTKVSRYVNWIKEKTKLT
Sequence of fXIa (human, UniProt P03951 19-625) (P03951 19-625 limits assumed): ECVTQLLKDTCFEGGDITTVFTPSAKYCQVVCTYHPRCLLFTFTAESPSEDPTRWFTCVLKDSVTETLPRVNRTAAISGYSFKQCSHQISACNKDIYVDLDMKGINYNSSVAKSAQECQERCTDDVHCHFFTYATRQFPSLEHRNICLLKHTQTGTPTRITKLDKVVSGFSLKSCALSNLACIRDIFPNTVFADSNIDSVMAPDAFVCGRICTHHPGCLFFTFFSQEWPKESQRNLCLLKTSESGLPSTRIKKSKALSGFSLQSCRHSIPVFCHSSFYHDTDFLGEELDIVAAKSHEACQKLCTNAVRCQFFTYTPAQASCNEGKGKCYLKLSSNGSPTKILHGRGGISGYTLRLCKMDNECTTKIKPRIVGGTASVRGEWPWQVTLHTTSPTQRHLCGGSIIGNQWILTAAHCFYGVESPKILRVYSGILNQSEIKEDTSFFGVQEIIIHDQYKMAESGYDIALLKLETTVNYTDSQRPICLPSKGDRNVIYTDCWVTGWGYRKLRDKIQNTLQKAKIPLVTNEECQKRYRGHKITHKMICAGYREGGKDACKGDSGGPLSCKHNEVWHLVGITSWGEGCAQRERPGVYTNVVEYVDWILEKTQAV

In the case of “KPDFCFLEEDPGPCRAVKRRYFYNNQTKQCERFKYGGCLGNMNNFETLEECKNICEDG (disulfide 5-55, 14-38, 30-51) [EVO2]”, the Ki at human MASP-2 (listed as WO2018127719 with SEQ ID NO: 14) is 7.9 nM; on human MASP-2, approximately 7 nM; on rat MASP-2, approximately 7 nM.

“KPDFCFLENDPGLCRAAAVRYFYNNQTKQCERFYYGGCLGNMNNFVTLEECKNICEDG (disulfide 5-55, 14-38, 30-51) [EVO222]” returned a Kd in assay [1] of 0.045 nM.

As for “KPDFCFLENDPGPCRAAAVRYFYNNQTKQCERFYYGGCLGNMNNFVTLEECKNICEDG (disulfide 5-55, 14-38, 30-51) [EVO223]”, the Ki at human MASP-2cf (5 nM enzyme, read-out: KI values human MASP-2cf) was found to be 0.17 ± 0.07 nM.

In the case of “KPDFCFLENDPGPCRAAKRRYFYNNQTKQCERFYYGGCLGNMNNFVTLEECKNICEDG (disulfide 5-55, 14-38, 30-51) [EVO22a]”, the Kd in assay [1] (Human MASP-2 catalytic fragment, SPR, read-out: KD) stood at 0.045 nM.

For the molecule “KPDFCFLENDPGPCRALKRRYFYNNQTKQCERFYYGGCFGNMNNFETLEECKNICEDG (disulfide 5-55, 14-38, 30-51) [EVO25]”, on human MASP-2cf, the affinity, expressed as Ki, was 0.17 ± 0.04 nM.

Take “KPDFCFLENDPGPCRALKRRYFYNNQTKQCERFYYGGCFGNMNNFVTLEECKNICEDG (disulfide 5-55, 14-38, 30-51) [EVO23]”: the IC50 against fXIa [2] was 500 nM.

In the case of “KPDFCFLENDPGPCRALKRRYFYNNQTKQCERFYYGGCLGNMNNFETLEECKNICEDG (disulfide 5-55, 14-38, 30-51) [EVO24]”, on fXIa [2], the IC50 came to 500 nM.

For the molecule “SEQ ID NO: 11 in WO2018127719: highest efficiency human MASP-2 inhibiting Kunitz domain compound of WO2018127719, canonical inhibitory loop sequence GFCRAVKR (KPDFCFLENDPGPCRALKRRYFYNNQTKQCERFYYGGCFGNMNNFETLEECKNICEDG)”, the values for the Ki with human MASP-2 and in the assay with rat MASP-2 were 2 nM and 640 nM, respectively.

B1: EVO21 (designed binder)
chain: KPDFCFLENDPGPCRALKRRYFYNNQTKQCERFGYGGCLGNMNNFVTLEECKNICEDG
modifications: not fully specified; ends and bridges not checked
notes: Modified TFPI-D2 Kunitz domain; made as m1
In assay [3], B1 returned a Kd of 0.082 nM, a Relative affinity of 44.1 fold vs EVO2, an off-rate (koff) of 4.49e-05 s⁻¹ and a kon of 545000 M⁻¹ s⁻¹. Moreover, in assay [4], the Kd amounted to 0.037 nM, the Relative affinity was 48 fold vs EVO2, the koff is 4.92e-05 s⁻¹ and the kon worked out at 1.32e+06 M⁻¹ s⁻¹. In assay [5], the “IC50, lectin pathway C4 deposition, rat serum” value came to 10.9 nM and the “Relative potency, lectin pathway, rat serum” value worked out at 9.8 fold vs EVO2. In [6], the “IC50, lectin pathway C4 deposition, human serum” value is 5.7 nM and the “Relative potency, lectin pathway, human serum” value came to 24.1 fold vs EVO2. For the same molecule, in assay [7], the “Relative potency (relative human lectin pathway inhibitory efficiency compared to EVO2)” value is 24 fold relative to EVO2. In the assay with fIXa, the “IC50, enzyme activity on synthetic substrate” value (from here on “IC50, enzyme activity”) was 28 µM. Besides, the “IC50, enzyme activity” value with fXIIa worked out at 10.5 µM. For the same molecule, the “IC50, enzyme activity” value with MASP-1 is 13 µM. For the same molecule, the “IC50, enzyme activity” value with fXIa [8] stood at 0.8 µM.

B2: EVO24 (designed binder)
chain: KPDFCFLENDPGPCRALKRRYFYNNQTKQCERFYYGGCLGNMNNFETLEECKNICEDG
modifications: not fully specified; cysteine pairing not given here
notes: as for B1
In assay [3], B2 returned a Kd of 0.289 nM, a Relative affinity of 12.6 fold vs EVO2, a koff of 0.000327 s⁻¹ and a kon of 1.13e+06 M⁻¹ s⁻¹. In [4], the Kd was determined as 0.276 nM, the Relative affinity stood at 6.5 fold vs EVO2, the koff amounted to 0.000622 s⁻¹ and the kon was determined as 2.25e+06 M⁻¹ s⁻¹. In assay [5], the “IC50, lectin pathway C4 deposition, rat serum” value was found to be 6.6 nM and the “Relative potency, lectin pathway, rat serum” value worked out at 16.2 fold vs EVO2. Also, in assay [6], the “IC50, lectin pathway C4 deposition, human serum” value stood at 7.6 nM and the “Relative potency, lectin pathway, human serum” value was determined as 18.1 fold vs EVO2. In assay [9], this molecule displayed a Ki of 0.36 nM. For the same molecule, affinity in [10] was put at a Ki of 0.34 nM. Moreover, the “IC50, enzyme activity” value with fIXa is 123 µM. In the assay with fXIIa, the “IC50, enzyme activity” value is 16.1 µM. Also, in the assay with MASP-1, the “IC50, enzyme activity” value is 9.5 µM. In the assay with fXIa [8], the “IC50, enzyme activity” value turned out to be 0.5 µM.
